{"source": "the supplement of paper PMC9428881", "note": "± gives the standard error."}
{"test": "background-corrected fluorescence of 3'-dye-labeled ssDNA relative to brightest sequence (3'-GCGCG) (fraction); higher = brighter dye fluorescence (less quenching)", "settings": "dye: Cy3 (3' terminal)", "protocol": "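Single-stranded DNA is synthesized in situ on glass microarrays by 5'->3' photolithographic synthesis, with a Cy3 or Cy5 phosphoramidite coupled at the 3' end next to all 1024 permuted pentamers P1-P5. The construct is 5'-T5-(ACGT minus P5..P1 trinucleotides)-T15-P5P4P3P2P1-dye-3'; the dye is a 3' terminal modification, not part of the sequence. Arrays were scanned at 532 nm (Cy3) or 635 nm (Cy5), background from unlabeled oligos was subtracted, and values are averaged over 10 replicate features per array and at least 3 independent syntheses.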"}
{"sequence": "TTTTTGCATGCGCATCATGATTTTTTTTTTTTTTTTATGC [CGTAT]", "background-corrected fluorescence": "0.5 ± 0.026"}
{"sequence": "TTTTTGCATGCGCATCATGCTTTTTTTTTTTTTTTTATGA [AGTAT]", "background-corrected fluorescence": "0.625 ± 0.025"}
{"sequence": "TTTTTGCATGCGCATGAGCATTTTTTTTTTTTTTTTATCT [TCTAT]", "background-corrected fluorescence": "0.457 ± 0.037"}
{"sequence": "TTTTTGCATGCGCATGATCATTTTTTTTTTTTTTTTATCG [GCTAT]", "background-corrected fluorescence": "0.515 ± 0.016"}
{"sequence": "TTTTTGCATGCGCATGATGATTTTTTTTTTTTTTTTATCC [CCTAT]", "background-corrected fluorescence": "0.384 ± 0.024"}
{"sequence": "TTTTTGCATGCGCATGATGCTTTTTTTTTTTTTTTTATCA [ACTAT]", "background-corrected fluorescence": "0.478 ± 0.033"}
{"sequence": "TTTTTGCATGCGCATGCGCATTTTTTTTTTTTTTTTATAT", "background-corrected fluorescence": "0.5701 ± 0.0051"}
{"sequence": "TTTTTGCATGCGCATGCTCATTTTTTTTTTTTTTTTATAG [GATAT]", "background-corrected fluorescence": "0.548 ± 0.02"}
{"sequence": "TTTTTGCATGCGCATGCTGATTTTTTTTTTTTTTTTATAC [CATAT]", "background-corrected fluorescence": "0.449 ± 0.022"}
{"sequence": "TTTTTGCATGCGCATGCTGCTTTTTTTTTTTTTTTTATAA [AATAT]", "background-corrected fluorescence": "0.55 ± 0.038"}
{"sequence": "TTTTTGCATGCTCAGCAGCATTTTTTTTTTTTTTTTAGTT [TTGAT]", "background-corrected fluorescence": "0.592 ± 0.023"}
{"sequence": "TTTTTGCATGCTCAGCATCATTTTTTTTTTTTTTTTAGTG [GTGAT]", "background-corrected fluorescence": "0.541 ± 0.027"}
{"sequence": "TTTTTGCATGCTCAGCATGATTTTTTTTTTTTTTTTAGTC [CTGAT]", "background-corrected fluorescence": "0.492 ± 0.026"}
{"sequence": "TTTTTGCATGCTCAGCATGCTTTTTTTTTTTTTTTTAGTA [ATGAT]", "background-corrected fluorescence": "0.566 ± 0.018"}
{"sequence": "TTTTTGCATGCTCATCAGCATTTTTTTTTTTTTTTTAGGT [TGGAT]", "background-corrected fluorescence": "0.634 ± 0.019"}
{"sequence": "TTTTTGCATGCTCATCATCATTTTTTTTTTTTTTTTAGGG [GGGAT]", "background-corrected fluorescence": "0.653 ± 0.032"}
{"sequence": "TTTTTGCATGCTCATCATGATTTTTTTTTTTTTTTTAGGC [CGGAT]", "background-corrected fluorescence": "0.617 ± 0.027"}
{"sequence": "TTTTTGCATGCTCATCATGCTTTTTTTTTTTTTTTTAGGA [AGGAT]", "background-corrected fluorescence": "0.747 ± 0.018"}
{"sequence": "TTTTTGCATGCTCATGAGCATTTTTTTTTTTTTTTTAGCT [TCGAT]", "background-corrected fluorescence": "0.57 ± 0.025"}
{"sequence": "TTTTTGCATGCTCATGATCATTTTTTTTTTTTTTTTAGCG [GCGAT]", "background-corrected fluorescence": "0.658 ± 0.008"}
{"sequence": "TTTTTGCATGCTCATGATGATTTTTTTTTTTTTTTTAGCC [CCGAT]", "background-corrected fluorescence": "0.425 ± 0.017"}
{"sequence": "TTTTTGCATGCTCATGATGCTTTTTTTTTTTTTTTTAGCA [ACGAT]", "background-corrected fluorescence": "0.52 ± 0.038"}
{"sequence": "TTTTTGCATGCTCATGCGCATTTTTTTTTTTTTTTTAGAT", "background-corrected fluorescence": "0.569 ± 0.031"}
{"sequence": "TTTTTGCATGCTCATGCTCATTTTTTTTTTTTTTTTAGAG [GAGAT]", "background-corrected fluorescence": "0.591 ± 0.014"}
{"sequence": "TTTTTGCATGCTCATGCTGATTTTTTTTTTTTTTTTAGAC [CAGAT]", "background-corrected fluorescence": "0.463 ± 0.023"}
{"sequence": "TTTTTGCATGCTCATGCTGCTTTTTTTTTTTTTTTTAGAA [AAGAT]", "background-corrected fluorescence": "0.639 ± 0.018"}
{"sequence": "TTTTTGCATGCTGAGCAGCATTTTTTTTTTTTTTTTACTT [TTCAT]", "background-corrected fluorescence": "0.504 ± 0.046"}
{"sequence": "TTTTTGCATGCTGAGCATCATTTTTTTTTTTTTTTTACTG [GTCAT]", "background-corrected fluorescence": "0.499 ± 0.024"}
{"sequence": "TTTTTGCATGCTGAGCATGATTTTTTTTTTTTTTTTACTC [CTCAT]", "background-corrected fluorescence": "0.385 ± 0.03"}
{"sequence": "TTTTTGCATGCTGAGCATGCTTTTTTTTTTTTTTTTACTA [ATCAT]", "background-corrected fluorescence": "0.502 ± 0.027"}
{"sequence": "TTTTTGCATGCTGATCAGCATTTTTTTTTTTTTTTTACGT", "background-corrected fluorescence": "0.584 ± 0.018"}
{"sequence": "TTTTTGCATGCTGATCATCATTTTTTTTTTTTTTTTACGG [GGCAT]", "background-corrected fluorescence": "0.697 ± 0.037"}
{"sequence": "TTTTTGCATGCTGATCATGATTTTTTTTTTTTTTTTACGC [CGCAT]", "background-corrected fluorescence": "0.523 ± 0.0065"}
{"sequence": "TTTTTGCATGCTGATCATGCTTTTTTTTTTTTTTTTACGA [AGCAT]", "background-corrected fluorescence": "0.627 ± 0.026"}
{"sequence": "TTTTTGCATGCTGATGAGCATTTTTTTTTTTTTTTTACCT [TCCAT]", "background-corrected fluorescence": "0.461 ± 0.017"}
{"sequence": "TTTTTGCATGCTGATGATCATTTTTTTTTTTTTTTTACCG [GCCAT]", "background-corrected fluorescence": "0.55 ± 0.026"}
{"sequence": "TTTTTGCATGCTGATGATGATTTTTTTTTTTTTTTTACCC [CCCAT]", "background-corrected fluorescence": "0.408 ± 0.012"}
{"sequence": "TTTTTGCATGCTGATGATGCTTTTTTTTTTTTTTTTACCA [ACCAT]", "background-corrected fluorescence": "0.43 ± 0.017"}
{"sequence": "TTTTTGCATGCTGATGCGCATTTTTTTTTTTTTTTTACAT", "background-corrected fluorescence": "0.489 ± 0.027"}
{"sequence": "TTTTTGCATGCTGATGCTCATTTTTTTTTTTTTTTTACAG [GACAT]", "background-corrected fluorescence": "0.499 ± 0.036"}
{"sequence": "TTTTTGCATGCTGATGCTGATTTTTTTTTTTTTTTTACAC [CACAT]", "background-corrected fluorescence": "0.425 ± 0.017"}
{"sequence": "TTTTTGCATGCTGATGCTGCTTTTTTTTTTTTTTTTACAA [AACAT]", "background-corrected fluorescence": "0.538 ± 0.025"}
{"sequence": "TTTTTGCATGCTGCGCAGCATTTTTTTTTTTTTTTTAATT", "background-corrected fluorescence": "0.549 ± 0.014"}
{"sequence": "TTTTTGCATGCTGCGCATCATTTTTTTTTTTTTTTTAATG [GTAAT]", "background-corrected fluorescence": "0.513 ± 0.02"}
{"sequence": "TTTTTGCATGCTGCGCATGATTTTTTTTTTTTTTTTAATC [CTAAT]", "background-corrected fluorescence": "0.458 ± 0.036"}
{"sequence": "TTTTTGCATGCTGCGCATGCTTTTTTTTTTTTTTTTAATA [ATAAT]", "background-corrected fluorescence": "0.56 ± 0.0062"}
{"sequence": "TTTTTGCATGCTGCTCAGCATTTTTTTTTTTTTTTTAAGT [TGAAT]", "background-corrected fluorescence": "0.663 ± 0.018"}
{"sequence": "TTTTTGCATGCTGCTCATCATTTTTTTTTTTTTTTTAAGG [GGAAT]", "background-corrected fluorescence": "0.627 ± 0.024"}
{"sequence": "TTTTTGCATGCTGCTCATGATTTTTTTTTTTTTTTTAAGC [CGAAT]", "background-corrected fluorescence": "0.524 ± 0.023"}
{"sequence": "TTTTTGCATGCTGCTCATGCTTTTTTTTTTTTTTTTAAGA [AGAAT]", "background-corrected fluorescence": "0.649 ± 0.011"}
{"sequence": "TTTTTGCATGCTGCTGAGCATTTTTTTTTTTTTTTTAACT [TCAAT]", "background-corrected fluorescence": "0.492 ± 0.02"}
{"sequence": "TTTTTGCATGCTGCTGATCATTTTTTTTTTTTTTTTAACG [GCAAT]", "background-corrected fluorescence": "0.51 ± 0.034"}
{"sequence": "TTTTTGCATGCTGCTGATGATTTTTTTTTTTTTTTTAACC [CCAAT]", "background-corrected fluorescence": "0.396 ± 0.025"}
{"sequence": "TTTTTGCATGCTGCTGATGCTTTTTTTTTTTTTTTTAACA [ACAAT]", "background-corrected fluorescence": "0.557 ± 0.022"}
{"sequence": "TTTTTGCATGCTGCTGCGCATTTTTTTTTTTTTTTTAAAT", "background-corrected fluorescence": "0.612 ± 0.027"}
{"sequence": "TTTTTGCATGCTGCTGCTCATTTTTTTTTTTTTTTTAAAG [GAAAT]", "background-corrected fluorescence": "0.552 ± 0.036"}
{"sequence": "TTTTTGCATGCTGCTGCTGATTTTTTTTTTTTTTTTAAAC [CAAAT]", "background-corrected fluorescence": "0.447 ± 0.028"}
{"sequence": "TTTTTGCATGCTGCTGCTGCTTTTTTTTTTTTTTTTAAAA [AAAAT]", "background-corrected fluorescence": "0.631 ± 0.013"}
{"sequence": "TTTTTTCAGCAGCAGCAGCATTTTTTTTTTTTTTTGTTTT", "background-corrected fluorescence": "0.531 ± 0.019"}
{"sequence": "TTTTTTCAGCAGCAGCATCATTTTTTTTTTTTTTTGTTTG", "background-corrected fluorescence": "0.517 ± 0.028"}
{"sequence": "TTTTTTCAGCAGCAGCATGATTTTTTTTTTTTTTTGTTTC [CTTTG]", "background-corrected fluorescence": "0.409 ± 0.024"}
{"sequence": "TTTTTTCAGCAGCAGCATGCTTTTTTTTTTTTTTTGTTTA [ATTTG]", "background-corrected fluorescence": "0.521 ± 0.027"}
{"sequence": "TTTTTTCAGCAGCATCAGCATTTTTTTTTTTTTTTGTTGT", "background-corrected fluorescence": "0.679 ± 0.031"}
{"sequence": "TTTTTTCAGCAGCATCATCATTTTTTTTTTTTTTTGTTGG [GGTTG]", "background-corrected fluorescence": "0.582 ± 0.0069"}
{"sequence": "TTTTTTCAGCAGCATCATGATTTTTTTTTTTTTTTGTTGC [CGTTG]", "background-corrected fluorescence": "0.53 ± 0.024"}
{"sequence": "TTTTTTCAGCAGCATCATGCTTTTTTTTTTTTTTTGTTGA [AGTTG]", "background-corrected fluorescence": "0.632 ± 0.027"}
